Assay results as given in patent US20160145334A1 (AbbVie / Abbott, published 2016).

T1: human NgR, full length, on cells (human, UniProt Q9BZR6 27-447)
T1 construct: whole, on cells; also called HEK293 NGR; human NgR expressed on HEK293f cells
T1 sequence (looked up): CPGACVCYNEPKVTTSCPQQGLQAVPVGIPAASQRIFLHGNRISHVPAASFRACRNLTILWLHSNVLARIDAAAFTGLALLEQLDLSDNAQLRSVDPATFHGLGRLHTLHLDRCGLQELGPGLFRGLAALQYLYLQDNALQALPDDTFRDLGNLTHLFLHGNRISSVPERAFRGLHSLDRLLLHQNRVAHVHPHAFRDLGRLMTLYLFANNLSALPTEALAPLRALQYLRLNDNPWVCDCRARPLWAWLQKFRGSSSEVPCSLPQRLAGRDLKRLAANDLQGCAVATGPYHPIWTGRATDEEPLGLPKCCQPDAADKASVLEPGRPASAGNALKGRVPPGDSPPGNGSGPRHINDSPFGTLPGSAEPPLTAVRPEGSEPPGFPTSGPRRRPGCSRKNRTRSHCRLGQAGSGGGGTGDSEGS

T2: rat NgR, full length, on cells (rat, UniProt Q99M75 27-447)
T2 construct: whole, on cells; also called CHO K1 Rat NGR; rat NgR expressed on HEK293f cells
T2 sequence (looked up): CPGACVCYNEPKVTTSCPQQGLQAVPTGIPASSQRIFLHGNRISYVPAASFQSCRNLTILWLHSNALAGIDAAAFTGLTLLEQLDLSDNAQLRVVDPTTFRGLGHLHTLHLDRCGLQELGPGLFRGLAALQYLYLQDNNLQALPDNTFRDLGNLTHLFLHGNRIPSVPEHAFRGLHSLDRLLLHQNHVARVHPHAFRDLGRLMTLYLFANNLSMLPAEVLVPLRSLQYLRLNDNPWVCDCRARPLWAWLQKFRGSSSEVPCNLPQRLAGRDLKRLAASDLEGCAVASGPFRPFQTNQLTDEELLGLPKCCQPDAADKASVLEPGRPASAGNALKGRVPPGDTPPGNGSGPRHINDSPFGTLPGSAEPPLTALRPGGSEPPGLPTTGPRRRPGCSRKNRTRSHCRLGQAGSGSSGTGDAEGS

T3: recombinant Rat MAG/Fc Chimera (R&D Systems, Catalog #538-MG) (rat, UniProt P07722 20-516)
T3 construct: Bought; labeled with horseradish peroxidase by the Zenon human IgG labeling kit in the assay; Fc part of the bought chimera not given; not described
T3 sequence (looked up): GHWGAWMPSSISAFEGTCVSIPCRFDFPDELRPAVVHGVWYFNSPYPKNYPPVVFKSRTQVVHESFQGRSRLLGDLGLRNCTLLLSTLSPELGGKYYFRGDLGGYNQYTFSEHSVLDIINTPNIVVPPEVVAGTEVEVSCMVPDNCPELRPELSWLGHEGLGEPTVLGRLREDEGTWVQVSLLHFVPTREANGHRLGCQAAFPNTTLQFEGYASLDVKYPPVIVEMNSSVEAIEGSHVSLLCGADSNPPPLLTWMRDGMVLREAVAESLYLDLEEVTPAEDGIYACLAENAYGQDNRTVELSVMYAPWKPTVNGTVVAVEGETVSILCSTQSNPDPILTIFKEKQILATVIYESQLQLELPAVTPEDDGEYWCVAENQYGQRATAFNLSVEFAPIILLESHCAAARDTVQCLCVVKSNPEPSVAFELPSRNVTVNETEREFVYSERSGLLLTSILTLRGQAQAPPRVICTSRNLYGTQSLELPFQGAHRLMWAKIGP

B1: AP-Nogo66 (ligand)
chain: DAAQPARRARRTYEAYVRSSGIIPVEEENPDFWNREAAEALGAAKKLQPAQTAAKNLIIFLGDGMGVSTVTAARILKGQKKDKLGPEIPLAMDRFPYVALSKTYNVDKHVPDSGATATAYLCGVKGNFQTIGLSAAARFNQCNTTRGNEVISVMNRAKKAGKSVGVVTTTRVQHASPAGTYAHTVNRNWYSDADVPASARQEGCQDIATQLISNMDIDVILGGGRKYMFRMGTPDPEYPDDYSQGGTRLDGKNLVQEWLAKRQGARYVWNRTELMQASLDPSVTHLMGLFEPGDMKYEIHRDSTLDPSLMEMTEAALRLLSRNPRGFFLFVEGGRIDHGHHESRAYRALTETIMFDDAIERAGQLTSEEDTLSLVTADHSHVFSFGGYPLRGSSIFGLAPGKARDRKAYTVLLYGNGPGYVLKDGARPDVTESESGSPEYRQQSAVPLDEETHAGEDVAVFARGPQAHLVHGVQEQTFIAHVMAFAACLEPYTACDLAPPAGTTDAAHPGYLEEALSLERIYKGVIQAIQKSDEGHPFRAYLESEVAISEELVQKYSNSALGHVNCTIKELRRLFLVDDLVDSLKSLEGPEQKLISEEDLNSAVDHHHHHH
notes: Nogo66 cloned into pAPTag5, made in HEK293 cells; also called Nogo66 fused to an alkaline phosphatase tag
B2: human recombinant NgR/Fc chimera (R&D Systems, Cat. Number 1208-NG) (Fc fusion, UniProt Q9BZR6 27-447, looked up)
chain: T1 sequence (looked up)
notes: range 1-447; Bought from R&D Systems; also called hNgR-Fc; human NgR-Fc; not shown: human Fc fragment

Tests used:
[1] = target: T1, human NgR, full length, on cells; experiment: FACS on HEK293f cells with human NgR, AP-Nogo66 40 nM, Alexa Fluor-labelled anti-alkaline phosphatase antibody
Description: (§1) To further characterize the binding and competitive properties of mAbs produced as described in Example 1, a suspension of HEK293f cells transiently expressing human or rat NgR was used. 48 h after transfection the cells were plated in 96-well microtiter plates (Nunc Maxisorb) and washed with Phosphate buffered saline buffer (PBS containing 1% BSA). 1 μg/200 μl of AP-Nogo66 (final concentration 40 nM) and varying concentrations of monoclonal antibodies (20 μg, 4, 0.8 and 0.16 μg/200 μl) were added and incubated for 1 h at 4° C. A monoclonal antibody with the same isotype was used as a negative control. The binding of AP-Nogo66 was detected with an anti-alkaline Phosphatase antibody (Sigma), which was labeled with Alexa Fluor using the Zenon mouse IgG2a labeling kit (Invitrogen). The secondary antibody was incubated for 1 h at 4° C. At the end of the incubation, the cells were washed with PBS and subjected to FACS analysis. At the 20 μg/200 μl concentration (20 fold molar excess) polyclonal anti-NgR antibody and the NgR-Fc (both from R&D Systems) blocked the AP-Nogo66 binding between 60% and 70%, while mAb 50 and 51 blocked the AP-Nogo66 binding by approximately 90%. […] The AP-Nogo66 fluorescence is shifted to lower intensities (shaded; green area) in the presence of both antibodies in HEK293f cells expressing human and rat NgR.

[2] = target: T2, rat NgR, full length, on cells; experiment: FACS on HEK293f cells with rat NgR, AP-Nogo66 40 nM, Alexa Fluor-labelled anti-alkaline phosphatase antibody
Description: as §1

[3] = target: T3, recombinant Rat MAG/Fc Chimera (R&D …); experiment: competition ELISA, human NgR-Fc coated 0.2 µg/well, HRP-labelled MAG-Fc at 50 ng/ml, competitor unlabelled MAG-Fc
Description: To further characterize the monoclonal antibodies a competition assay similar to the binding assay of Example 2 was used to test the ability of two mAbs produced in Example 1 to inhibit MAG-Fc binding to human NgR-Fc. We immobilized NgR-Fc (0.2 μg/well, R&D Systems) on 96-well microtiter plates (Nunc Maxisorb) in 50 mM Na-carbonate buffer pH 9 over night at 4° C. followed by a 2 h blocking step with 2% BSA in Tris-HCL, pH 7.2 at room temperature. MAG-Fc (R&D Systems recombinant Rat MAG/Fc Chimera, Catalog #538-MG) was labeled with horseradish peroxidase by the Zenon human IgG labeling kit (Molecular Probes). The wells received a constant concentration of labeled MAG-Fc (final concentration 50 ng/ml in Tris-HCL, pH 7.2 with 0.1% BSA) and the indicated concentrations of mAb 50 and mAb 51. This was incubated for 60 min at room temperature and using unlabeled MAG-Fc and NgR-Fc as controls. During each incubation step plates were washed with washing buffer (10 mM Tris-HCl, pH 7.2 and 0.05% Tween 20). Labeled MAG-Fc was developed using 3,3′,5,5′-tetramethylbenzidine substrate (TMB, Pierce) under standard conditions. […] MAG-Fc and NgR-Fc competed for the binding of labeled MAG-Fc (closed circles) to human NgR-Fc (a fusion protein comprising amino acids Met 1 to Ser 447 of the human NgR and a human Fc fragment (R&D Systems); closed squares). […]

Row | Binder | binding result [1] | binding result [2] | binding result [3]
1 | B1 | binds | binds | –
2 | B2 | – | – | binds
